What was measured:
[1] = molecular target: Fluc-Ec2 (E. coli (virulence plasmid)) (UniProt Q6J5N4); assay: SEC-MALS; SEC with static light scattering, refractive index and UV detectors; Superdex-75 in 400 mM NaF, 10 mM MES pH 6.5, 5 mM DM (detergent micelles)
[2] = molecular target: the molecule itself; assay: single-molecule TIRF photobleaching; Cy5-labeled protein reconstituted at very low density (0.15 µg/mg lipid) in liposomes adhered to glass; counting of bleaching steps
[3] = molecular target: the molecule itself; assay: cross-linking; ~0.1 mg/ml purified protein in 20 mM MOPS pH 7.5, 100 mM NaCl, 10 mM NaF, 5 mM DM with 0.125% glutaraldehyde for 5-120 min; 15% SDS-PAGE

Work on “Fluc-Ec2 (from UniProt Q6J5N4 1-126) (natural protein)” yielded a stoichiometry N [1] of 2.

B1: Fluc-Bpe R29C labeled with Cy5-maleimide (natural protein)
chain: MLTYAPLNFIAIGIGATLGAWLRWVLGLCLNGAGWPWGTLTANLVGGYLIGVMVALIASHPEWPAWIRLAAVTGFLGGLTTFSTFSAETVDMLERGVYATAAAYAGASLAGSLAMTGLGLATVRLLLR
modifications: Cy5-maleimide on the unique cysteine R29C (labeling efficiency 72%)
notes: Fluc homologue Bpe from Bordatella pertussis (so in the source), NCBI NP_879990.1, naturally cysteine-free, with a single cysteine substitution; source: E. coli BL21-DE3, purified, labeled with Cy5-maleimide, reconstituted into liposomes at 0.15 µg/mg lipid
B1 was tested, and the “stoichiometry N” value [2] was 2.

B2: Fluc-Bpe R29K (natural protein)
chain: MLTYAPLNFIAIGIGATLGAWLRWVLGLKLNGAGWPWGTLTANLVGGYLIGVMVALIASHPEWPAWIRLAAVTGFLGGLTTFSTFSAETVDMLERGVYATAAAYAGASLAGSLAMTGLGLATVRLLLR
notes: Fluc homologue Bpe from Bordatella pertussis (so in the source), NCBI NP_879990.1, lysine-less, with a single lysine in loop 1
B2: binds [3].

B3: Fluc-Bpe T3C labeled with Cy5-maleimide (natural protein)
chain: MLCYAPLNFIAIGIGATLGAWLRWVLGLRLNGAGWPWGTLTANLVGGYLIGVMVALIASHPEWPAWIRLAAVTGFLGGLTTFSTFSAETVDMLERGVYATAAAYAGASLAGSLAMTGLGLATVRLLLR
modifications: Cy5-maleimide on the unique cysteine T3C (labeling efficiency 62%)
notes: as for B1
B3: binds [2].

B4: Fluc-Bpe R95K (natural protein)
chain: MLTYAPLNFIAIGIGATLGAWLRWVLGLRLNGAGWPWGTLTANLVGGYLIGVMVALIASHPEWPAWIRLAAVTGFLGGLTTFSTFSAETVDMLEKGVYATAAAYAGASLAGSLAMTGLGLATVRLLLR
notes: Fluc homologue Bpe from Bordatella pertussis (so in the source), NCBI NP_879990.1, lysine-less, with a single lysine in loop 3
B4: binds [3].
